Data reported in paper PMC3393700, “Localization and Sub-Cellular Shuttling of HTLV-1 Tax with the miRNA Machinery” (PLoS ONE, 2012).

Columns and labels:
[1] = molecular target: Tax deletion mutant TD1 (Δ1–37) (HTLV-1, UniProt P03409 38-353); assay: cell-based or functional assay
[2] = molecular target: Tax deletion mutant TD55 (Δ55–92) (HTLV-1, UniProt P03409 1-353, Δ55–92); assay: cell-based or functional assay

B1: Drosha (endogenous, 293T cell lysate) (enzyme, human (endogenous in 293T), UniProt Q9NRR4 1-1374, looked up)
chain: MMQGNTCHRMSFHPGRGCPRGRGGHGARPSAPSFRPQNLRLLHPQQPPVQYQYEPPSAPSTTFSNSPAPNFLPPRPDFVPFPPPMPPSAQGPLPPCPIRPPFPNHQMRHPFPVPPCFPPMPPPMPCPNNPPVPGAPPGQGTFPFMMPPPSMPHPPPPPVMPQQVNYQYPPGYSHHNFPPPSFNSFQNNPSSFLPSANNSSSPHFRHLPPYPLPKAPSERRSPERLKHYDDHRHRDHSHGRGERHRSLDRRERGRSPDRRRQDSRYRSDYDRGRTPSRHRSYERSRERERERHRHRDNRRSPSLERSYKKEYKRSGRSYGLSVVPEPAGCTPELPGEIIKNTDSWAPPLEIVNHRSPSREKKRARWEEEKDRWSDNQSSGKDKNYTSIKEKEPEETMPDKNEEEEEELLKPVWIRCTHSENYYSSDPMDQVGDSTVVGTSRLRDLYDKFEEELGSRQEKAKAARPPWEPPKTKLDEDLESSSESECESDEDSTCSSSSDSEVFDVIAEIKRKKAHPDRLHDELWYNDPGQMNDGPLCKCSAKARRTGIRHSIYPGEEAIKPCRPMTNNAGRLFHYRITVSPPTNFLTDRPTVIEYDDHEYIFEGFSMFAHAPLTNIPLCKVIRFNIDYTIHFIEEMMPENFCVKGLELFSLFLFRDILELYDWNLKGPLFEDSPPCCPRFHFMPRFVRFLPDGGKEVLSMHQILLYLLRCSKALVPEEEIANMLQWEELEWQKYAEECKGMIVTNPGTKPSSVRIDQLDREQFNPDVITFPIIVHFGIRPAQLSYAGDPQYQKLWKSYVKLRHLLANSPKVKQTDKQKLAQREEALQKIRQKNTMRREVTVELSSQGFWKTGIRSDVCQHAMMLPVLTHHIRYHQCLMHLDKLIGYTFQDRCLLQLAMTHPSHHLNFGMNPDHARNSLSNCGIRQPKYGDRKVHHMHMRKKGINTLINIMSRLGQDDPTPSRINHNERLEFLGDAVVEFLTSVHLYYLFPSLEEGGLATYRTAIVQNQHLAMLAKKLELDRFMLYAHGPDLCRESDLRHAMANCFEALIGAVYLEGSLEEAKQLFGRLLFNDPDLREVWLNYPLHPLQLQEPNTDRQLIETSPVLQKLTEFEEAIGVIFTHVRLLARAFTLRTVGFNHLTLGHNQRMEFLGDSIMQLVATEYLFIHFPDHHEGHLTLLRSSLVNNRTQAKVAEELGMQEYAITNDKTKRPVALRTKTLADLLESFIAALYIDKDLEYVHTFMNVCFFPRLKEFILNQDWNDPKSQLQQCCLTLRTEGKEPDIPLYKTLQTVGPSHARTYTVAVYFKGERIGCGKGPSIQQAEMGAAMDALEKYNFPQMAHQKRFIERKYRQELKEMRWEREHQEREPDETEDIKK
**Q.** B1 was tested. Which “miR326 expression (quantiMiR PCR, normalized to U6, relative to mock) in 293T cells transfected with the Tax mutant” value [1] did it give?
**A.** The value was 1.5 fold.

**Q.** What about the “miR326 expression (quantiMiR PCR, normalized to U6, relative to mock) in 293T cells transfected with the Tax mutant” value [2] of the same binder?
**A.** Its value is 4 fold.
